Our source for the Kd, koff and kon values is patent US20260193326A1.

What all share (test): SPR, AAV on CM5 chip
A general note: In SPR one partner is held on a chip, and binding of the other changes the refractive index at the surface.

Assay [1] has as its target AAV5 (adeno-associated virus serotype 5).
Assay [2] concerns the target AAV9 (adeno-associated virus serotype 9).
Assay [3] addresses AAV8 (adeno-associated virus serotype 8).

B1: A4-B2 (bispecific antibody)
chain: VQLQESGGGLVQAGGSLRLSCAASGSRFSINTMGWYRQAPGKQREFVATVTRGGNTNYAESVKGRFTISRDNAKNTVYLQMNSLRPEDTAVYYCHVDEVRDSSWTTSNIWGQGTQVTVSSGGGGSGGGGSGGGGSVQLQESGGGLVQAGGSLRLSCAASGSTFSINTMGWYRQAPGKQRELVATITRGGNTNYADSVKGRFTISRDNAKNTVYLQMNSLRPEDTAVYYCHVDEVRQSSWTTSNLWGQGTQVTVSS
In assay [1], B1 came in with a Kd of 7.38 nM, a koff of 0.00117 s⁻¹ and a kon of 159000 M⁻¹ s⁻¹. In addition, in assay [2], the Kd stood at 8.35 nM, the koff was determined as 0.0008 s⁻¹ and the kon is 95800 M⁻¹ s⁻¹. In assay [3], this molecule gave an equilibrium dissociation constant (Kd) of 1.02 nM, a koff of 0.00014 s⁻¹ and a kon of 138000 M⁻¹ s⁻¹.

B2: A4-C4 (bispecific antibody)
chain: VQLQESGGGLVQAGGSLRLSCAASGSRFSINTMGWYRQAPGKQREFVATVTRGGNTNYAESVKGRFTISRDNAKNTVYLQMNSLRPEDTAVYYCHVDEVRDSSWTTSNIWGQGTQVTVSSGGGGSGGGGSGGGGSVQLQESGGGLVQAGGSLRLSCAASGSRFSINTMGWYRQAPGKQREFVATVTRGGNTNYAESVKGRFTISRDNAKNTVYLQMNSLRPEDTAVYYCHVDEVRDSSWTTSNIWGQGTQVTVSSGGGGSGGGGSGGGGSVQLQESGGGLVQPGGSLRLSCAASGSNFRINTMGWYRQAPGKQRELVATVTRGGSTNYADSVKGRFTISRDNPKDTVYLQMNSLRPEDTAVYYCHVDEVRESSWTTSNLWGQGTQVTVSS
In assay [1], B2 displayed a Kd of 6.72 nM, a koff of 0.00121 s⁻¹ and a kon of 180000 M⁻¹ s⁻¹. Besides, in assay [2], the Kd was 1.87 nM, the koff is 0.00031 s⁻¹ and the kon was found to be 165000 M⁻¹ s⁻¹. In assay [3], this molecule had a Kd of 2.36 nM, a koff of 0.00025 s⁻¹ and a kon of 106000 M⁻¹ s⁻¹.

B3: A4-C2 (VHH)
chain: VQLQESGGGLVQPGGSLRLSCAASGSAFSINTMGWYRQAPGKQRELVASVTPGGSTNYADSVKGRFTISRDNAKNTIYLQMNSLRPEDTAVYYCHLDEVRESSWTTSNLWGQGTQVTVSSGGGGSGGGGSGGGGSVQLQESGGGLVQPGGSLRLSCAASGSAFSINTMGWYRQAPGKQRELVASVTPGGSTNYADSVKGRFTISRDNAKNTIYLQMNSLRPEDTAVYYCHLDEVRESSWTTSNLWGQGTQVTVSSGGGGSGGGGSGGGGSVQLQESGGGLVQPGGSLRLSCAASGSAFSINTMGWYRQAPGKQRELVASVTPGGSTNYADSVKGRFTISRDNAKNTIYLQMNSLRPEDTAVYYCHLDEVRESSWTTSNLWGQGTQVTVSS
For B3, the results for the Kd in assay [1], in assay [2] and in assay [3] were 0.691 nM, 0.486 nM and 0.359 nM, respectively. For the same molecule, the koff in assay [1] is 0.000134 s⁻¹; in assay [2], 0.000125 s⁻¹; in assay [3], 5e-05 s⁻¹. The kon was found to be 194000 M⁻¹ s⁻¹ in assay [1], 257000 M⁻¹ s⁻¹ in assay [2] and 139000 M⁻¹ s⁻¹ in assay [3].

B4: A4-C5 (bispecific antibody)
chain: VQLQESGGGLVQPGGSLRLSCAASGSNFRINTMGWYRQAPGKQRELVATVTRGGSTNYADSVKGRFTISRDNPKNTVYLQMNSLRPEDTAVYYCHVDEVRESSWTTSNLWGQGTQVTVSSGGGGSGGGGSGGGGSVQLQESGGGLVQPGGSLRLSCAASGSNFSINTMGWYRQAPGKQRELVATVTRGGDTNYADSVKGRFTISRDNAKNTVYLQMNSLRPEDTAVYYCHVDEIRESSWTTSNLWGQGTQVTVSSGGGGSGGGGSGGGGSVQLQESGGGLVQPGGSLRLSCAASGSNFRINTMGWYRQAPGKQRELVATVTRGGSTNYADSVKGRFTISRDNPKNTVYLQMNSLRPEDTAVYYCHVDEVRESSWTTSNLWGQGTQVTVSS
For the molecule B4, in assay [1], the Kd was 7.86 nM, the koff worked out at 0.0013 s⁻¹ and the kon came out at 165000 M⁻¹ s⁻¹. In assay [2], this molecule had a Kd of 1.68 nM, a koff of 0.0002 s⁻¹ and a kon of 119000 M⁻¹ s⁻¹. Besides, in assay [3], the Kd worked out at 4.97 nM, the koff amounted to 0.00091 s⁻¹ and the kon was determined as 183000 M⁻¹ s⁻¹.

B5: A4-C8 (bispecific antibody)
chain: VQLQESGGGLVQPGGSLRLSCAASGSNFRINTMGWYRQAPGKQRELVAPVTRGGSTNYADSVKGRFTISRDNAKNTVYLQMNSLRPEDTAVYYCHVDEVRESSWTTSNLWGQGTQVTVSSGGGGSGGGGSGGGGSVQLQESGGGLVQPGGSLRLSCAASGSNFSINTMGWYRQAPGKQRELVATVTRGGDTNYADSVKGRFTISRDNAKNTVYLQMNSLRPEDTAVYYCHVDEIRESSWTTSNLWGQGTQVTVSSGGGGSGGGGSGGGGSVQLQESGGGLVQPGGSLRLSCAASGSNFSINTMGWYRQAPGKQRELVAALTRGGSTNYADSVKGRFTISRDNAKNTVYLQMNSLRPEDTAVYYCHVDEVRESSWTTSNLWGQGTQVTVSS
Take B5: the Kd in assay [1] was 0.69 nM; in assay [2], 0.279 nM; in assay [3], 2.81 nM. Further, the koff in assay [1] turned out to be 0.00013 s⁻¹; in assay [2] it was 5e-05 s⁻¹; in assay [3] it was 0.00037 s⁻¹. Further, the kon in assay [1] is 188000 M⁻¹ s⁻¹; in assay [2] it was 179000 M⁻¹ s⁻¹; in assay [3], 132000 M⁻¹ s⁻¹.

B6: A4-C6 (bispecific antibody)
chain: VQLQESGGGLVQPGGSLRLSCAASGSNFRINTMGWYRQAPGKQRELVAPVTRGGSTNYADSVKGRFTISRDNAKNTVYLQMNSLRPEDTAVYYCHVDEVRESSWTTSNLWGQGTQVTVSSGGGGSGGGGSGGGGSVQLQESGGGLVQPGGSLRLSCAASGSNFSINTMGWYRQAPGKQRELVAALTRGGSTNYADSVKGRFTISRDNAKNTVYLQMNSLRPEDTAVYYCHVDEVRESSWTTSNLWGQGTQVTVSSGGGGSGGGGSGGGGSVQLQESGGGLVQPGGSLRLSCAASGSNFSINTMGWYRQAPGKQRELVATVTRGGDTNYADSVKGRFTISRDNAKNTVYLQMNSLRPEDTAVYYCHVDEIRESSWTTSNLWGQGTQVTVSS
B6: in assay [1], the Kd worked out at 0.785 nM, the koff is 0.000139 s⁻¹ and the kon came to 177000 M⁻¹ s⁻¹. Moreover, in assay [2], the Kd worked out at 0.55 nM, the koff was determined as 2.5e-05 s⁻¹ and the kon turned out to be 45400 M⁻¹ s⁻¹. Also, in assay [3], the Kd is 2.67 nM, the off-rate constant (koff) worked out at 0.00044 s⁻¹ and the kon was found to be 165000 M⁻¹ s⁻¹.

B7: A4-C3 (bispecific antibody)
chain: VQLQESGGGLVQPGGSLRLSCAASGSIFSINLMGWYRQAPGKQRELVATITRGGNTNYAGSVKGRFTISRDNAKNTVYLQMNSLRPEDTAVYYCHVDEVRQSSWTTSNLWGQGTQVTVSSGGGGSGGGGSGGGGSVQLQESGGGLVQPGGSLRLSCAASGSIFSINLMGWYRQAPGKQRELVATITRGGNTNYAGSVKGRFTISRDNAKNTVYLQMNSLRPEDTAVYYCHVDEVRQSSWTTSNLWGQGTQVTVSSGGGGSGGGGSGGGGSVQLQESGGGLVQPGGSLRLSCAASGSNFRINTMGWYRQAPGKQRELVATVTRGGSTNYADSVKGRFTISRDNPKDTVYLQMNSLRPEDTAVYYCHVDEVRESSWTTSNLWGQGTQVTVSS
B7: in assay [1], the Kd was found to be 0.628 nM, the koff worked out at 9e-05 s⁻¹ and the kon turned out to be 143000 M⁻¹ s⁻¹. In assay [2], this molecule displayed a Kd of 0.491 nM, a koff of 9e-05 s⁻¹ and a kon of 183000 M⁻¹ s⁻¹. In assay [3], this molecule yielded a Kd of 0.534 nM, a koff of 4e-05 s⁻¹ and a kon of 74900 M⁻¹ s⁻¹.

B8: A4-C1 (VHH)
chain: VQLQESGGGLVQPGGSLRLSCAASGSGFSINTMGWYRQAPGKQRELVATVTRDGSTNYADFVKGRFTISRDNAKNTVYLQMNSLRPEDTAVYYCHLDEVRESSWTTSNLWGQGTQVTVSSGGGGSGGGGSGGGGSVQLQESGGGLVQPGGSLRLSCAASGSGFSINTMGWYRQAPGKQRELVATVTRDGSTNYADFVKGRFTISRDNAKNTVYLQMNSLRPEDTAVYYCHLDEVRESSWTTSNLWGQGTQVTVSSGGGGSGGGGSGGGGSVQLQESGGGLVQPGGSLRLSCAASGSGFSINTMGWYRQAPGKQRELVATVTRDGSTNYADFVKGRFTISRDNAKNTVYLQMNSLRPEDTAVYYCHLDEVRESSWTTSNLWGQGTQVTVSS
For the molecule B8, the Kd in assay [1] worked out at 13.2 nM; in assay [2], 1.03 nM; in assay [3], 9.2 nM. Moreover, the koff is 0.00138 s⁻¹ in assay [1], 1e-05 s⁻¹ in assay [2] and 0.00164 s⁻¹ in assay [3]. The results for the kon in assay [1], in assay [2] and in assay [3] were 104000 M⁻¹ s⁻¹, 9690 M⁻¹ s⁻¹ and 178000 M⁻¹ s⁻¹, respectively.

B9: A4-C7 (bispecific antibody)
chain: VQLQESGGGLVQPGGSLRLSCAASGSNFSINTMGWYRQAPGKQRELVATVTRGGDTNYADSVKGRFTISRDNAKNTVYLQMNSLRPEDTAVYYCHVDEIRESSWTTSNLWGQGTQVTVSSGGGGSGGGGSGGGGSVQLQESGGGLVQPGGSLRLSCAASGSNFRINTMGWYRQAPGKQRELVAPVTRGGSTNYADSVKGRFTISRDNAKNTVYLQMNSLRPEDTAVYYCHVDEVRESSWTTSNLWGQGTQVTVSSGGGGSGGGGSGGGGSVQLQESGGGLVQPGGSLRLSCAASGSSFTINTMGWYRQAPGKQRELVAAVTRGGSTNYAGSVKGRFTISRDNAKNTIYLQMNSLRPEDTAVYYCHVDEIRQSSWTTSNLWGQGTQVTVSS
On to B9, for which, in assay [1], the Kd was 0.0732 nM, the koff is 3.2e-05 s⁻¹ and the kon stood at 437000 M⁻¹ s⁻¹. Moreover, in assay [2], the Kd is 0.127 nM, the off-rate (koff) is 1.75e-05 s⁻¹ and the kon was 137000 M⁻¹ s⁻¹. In assay [3], the Kd came out at 3.7 nM, the koff came to 0.00047 s⁻¹ and the kon was determined as 127000 M⁻¹ s⁻¹.

B10: A4-B1 (VHH)
chain: VQLQESGGGLVQPGGSLRLSCAASGSIFSINLMGWYRQAPGKQRELVATITRGGNTNYAGSVKGRFTISRDNAKNTVYLQMNSLRPEDTAVYYCHVDEVRQSSWTTSNLWGQGTQVTVSSGGGGSGGGGSGGGGSVQLQESGGGLVQPGGSLRLSCAASGSIFSINLMGWYRQAPGKQRELVATITRGGNTNYAGSVKGRFTISRDNAKNTVYLQMNSLRPEDTAVYYCHVDEVRQSSWTTSNLWGQGTQVTVSS
On to B10, for which, in assay [1], the Kd was determined as 0.102 nM, the koff was determined as 1.23e-05 s⁻¹ and the kon stood at 121000 M⁻¹ s⁻¹. For the same molecule, in assay [2], the Kd was found to be 0.715 nM, the koff came to 0.00014 s⁻¹ and the kon was 196000 M⁻¹ s⁻¹. Besides, in assay [3], the Kd is 1.63 nM, the koff worked out at 0.000154 s⁻¹ and the kon was 94500 M⁻¹ s⁻¹.

Broadly, the Kd is the concentration at which binding is half-saturated. One may read the koff as the first-order rate constant of dissociation. Broadly, the kon is a measure of how fast the partners come together.
